From the nanobody polyreactivity screen of Harvey et al. (2022)

Assay: yeast display, Sf9 membrane polyspecificity reagent, FACS + sequencing; frameworks hold sequencing errors
Outline: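 Genes from sorted yeast were amplified by colony PCR, read by MiSeq 2 × 250 sequencing and filtered on CDR length. These cells carried a synthetic nanobody library in Saccharomyces cerevisiae BJ5465 and were sorted by FACS into low and high (top ~1%) gates on anti-HA and streptavidin fluorescence. Polyreactivity is labelled according to the gate of origin.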

QVQLVESGGGLVQAGGSLRLSCAASGFIFRLYTMGLYRQAPGKERELVARITRGDSTNYADSVKGRFTISRDNAQNTVYLQMNCLYPEDTAVYYCAKLHRGLPYYSFYRGYYYWGQVTQVTVSS
polyreactivity (PSR sort gate): low polyreactivity

QVQLVESGGGLVQAGGSLRLSCAASGFIFRNYAMGWYRQAPGKERELVAAITRSGTSTYYADSVKGRFTISRDNAKNTVYLQMNSLKPEDTAVYYCAARAWSSRRRLMYYWGQGTQVTVSS
polyreactivity (PSR sort gate): high polyreactivity

QVQLVESGGGLVQAGGSLRLSCAASGFIFRPYAMGWYRQAPGKERELVAAISFSGGSTYYADSVKGRFTISRDNAKNTVYLQMNSLIPEDTAVYYCAAVYYFSYWLGPDDYWGQGTQVTVSS
polyreactivity (PSR sort gate): low polyreactivity

QVQLVESGGGLVQAGGSLRLSCAASGFIFRPYAMGWYRQAPGKERELVATIRWGASSTHYADSVKGRFTISRDNAKNTVYLQMNSLKPEDTAVYDCNADGWYGAVYWWFYGFDYWGQGTQVTVSS
polyreactivity (PSR sort gate): low polyreactivity

QVQLVESGGGLVQAGGSLRLSCAASGFIFRQYAMGWYIQAPGKERELVAAITWSGTRTYYADSVKGRFTISRDNAKNTVYLQMNSLKPEDTAVYYCNAGYPKYGYDYWGQGTQVTVSS
polyreactivity (PSR sort gate): high polyreactivity

QVQLVESGGGLVQAGGSLRLSCAASGFIFRQYAMGWYRQAPGKERELVAAISTGGGRTYYADSVKGRFTISRDNAKNTVYLQMNSLKPEDTAVYYCAVYYYKTYDYWGQGTQVTVSS
polyreactivity (PSR sort gate): high polyreactivity

QVQLVESGGGLVQAGGSLRLSCAASGFIFRRYAMGWYRQAPGKERELVAAITRSGGSTYYADSVKGRFTISRDNAMNTVYLQMNSLKPEDTAVYYCNARYARVVPRYYYWGQGTQVTVSS
polyreactivity (PSR sort gate): high polyreactivity

QVQLVESGGGLVQAGGSLRLSCAASGFIFRRYTMGWYRQAPGKERELVATITRSVNTDYADSVKGRFTISRDNAKNTVYLHMNSLKPEDTAVYYCAARKYFYFPVAYDYWGQGTQVTVSS
polyreactivity (PSR sort gate): high polyreactivity

QVQLVESGGGLVQAGGSLRLSCAASGFIFRSNAMGWYRQAPGKEREFVAAISSRGGSTTYADSVKGRFTISRDNAKNSVYLQMNSLKPEDTAVYYCARDWYYYPQYRQRYYYWGQGTQVTVSS
polyreactivity (PSR sort gate): high polyreactivity

QVQLVESGGGLVQAGGSLRLSCAASGFIFRSNAMGWYRQAPGKERELVAAISGRGCSTYYADSVKGRFTISRDNAKNTVYLQMNSLKPVDTAVYYCAKSTVWVLYGYWGQGTQVTVSS
polyreactivity (PSR sort gate): high polyreactivity

QVQLVESGGGLVQAGGSLRLSCAASGFIFRSNAMGWYRQAPWKEREFVAAITYSSGSTYYRNSVKGRFTISRDNAKNTVYLQMNSLKPEDTAVYYCATPVTNGFDYWGQGTQVTVSS
polyreactivity (PSR sort gate): high polyreactivity

QVQLVESGGGLVQAGGSLRLSCAASGFIFRSYAMGWYRQAPGKERELVAAISRSGGSTYYADSVKGRFTISRDNAKNTVYLQMNSLKPEDTAVYYCATDGGRSTARGYGHWGQGTQVTVSS
polyreactivity (PSR sort gate): high polyreactivity

QVQLVESGGGLVQAGGSLRLSCAASGFIFRSYAMGWYRQAPGKERELVAVISRRGVNTHYADSVKGRFTISRDNAKNTVYLQMNSLKPEDTAVYYCAKGLTALGDYWGQGTQVTVSS
polyreactivity (PSR sort gate): high polyreactivity

QVQLVESGGGLVQAGGSLRLSCAASGFIFRTYAMGWYRQAPGKERELVAAITYSAGSTYYADSVKGRFTISRDNAKNTVYLQMNSLKPEDTAVYYCNVRKTWYGYSVTGRYDYWGQGTQVTVSS
polyreactivity (PSR sort gate): low polyreactivity

QVQLVESGGGLVQAGGSLRLSCAASGFIFRWNAMGWYRQSPGKERELVATISNGGSTYYADSVKGRFTISRDNAKNSVYLQMNSLKPEDTAVYYCAADYWYFSISITDYDYWGQGTQVTVSS
polyreactivity (PSR sort gate): high polyreactivity

QVQLVESGGGLVQAGGSLRLSCAASGFIFRWYAMGWYRQAPGKERELVAAISRSGDSTYYADSVKGRFTISRDNAKNTVYLQKNSLKPEDTAVYYCAADDRYYTYGYDYWGQGTQVTVSS
polyreactivity (PSR sort gate): low polyreactivity

QVQLVESGGGLVQAGGSLRLSCAASGFIFRWYAMGWYRQAPGKERELVAAISSSSGSTYYADSVKGRFTISRDNAKNTVYLQMNSLKPEDTAVYYCAAESNRRFEGEYWGQGTQVTVSS
polyreactivity (PSR sort gate): high polyreactivity
